# Reference: paper PMC10907249
# Biological target: HLA-A*02:01 refolded with the photocleavable peptide photoKV9, UV-exposed (A*02/photoKV9)
# Assay: fluorescence polarisation
substance,measurement,value
US11 peptide S28V_WT (amino acids 17 to 44) (from UniProt P09727 17-44),IC50,3.83 µM
